Biological target: the molecule itself
Assay: SEC; Superdex 200 10/300 GL, buffer A (25 mM Tris, 500 mM NaCl, 0.174% (w/v) DM, pH 7.4), 0.5 ml/min, column calibrated with protein standards; fractions read by SDS PAGE; oligomer size from the elution volume

B1: human TPC2 DI pore (S212-A337), hexa-histidine-tagged (domain or fragment, UniProt Q8NHX9 212-337, looked up)
chain: SLPEMASVGLLLAIHLCLFTMFGMLLFAGGKQDDGQDRERLTYFQNLPESLTSLLVLLTTANNPDVMIPAYSKNRAYAIFFIVFTVIGSLFLMNLLTAIIYSQFRGYLMKSLQTSLFRRRLGTRAA
notes: two-pore channel 2 (TPC2), human, domain I pore region (S5-S6), residues S212-A337, codon-optimised synthetic gene in pET15b; numbers count on the full length channel; No removal of the His tag is described; also called hexaHis-DI pore; DI pore-only protein
stoichiometry N: 4
